From patent US10653749B2, “Targeting GIV-GEF-GI signaling for treating diverse diseases” (The Regents of the University of California, priority 2015, dated 2020)
“Also recorded” adds a separate entry of the source.

How the values were obtained:
GST-Gαi3 (GDP loaded) = molecular target: T1, GST-Gαi3 (GDP loaded) (Rattus norvegicus, UniProt P08753); experiment: In vitro GST pulldown of TAT-GIV-CT proteins with GST-Gαi3; type: binding; conditions: 3 μg TAT protein, 4 h at 4° C., immunoblot with His mAb
T1 construct: made in house; host or cells: E. coli BL21(DE3)
T1 sequence (P08753 whole entry): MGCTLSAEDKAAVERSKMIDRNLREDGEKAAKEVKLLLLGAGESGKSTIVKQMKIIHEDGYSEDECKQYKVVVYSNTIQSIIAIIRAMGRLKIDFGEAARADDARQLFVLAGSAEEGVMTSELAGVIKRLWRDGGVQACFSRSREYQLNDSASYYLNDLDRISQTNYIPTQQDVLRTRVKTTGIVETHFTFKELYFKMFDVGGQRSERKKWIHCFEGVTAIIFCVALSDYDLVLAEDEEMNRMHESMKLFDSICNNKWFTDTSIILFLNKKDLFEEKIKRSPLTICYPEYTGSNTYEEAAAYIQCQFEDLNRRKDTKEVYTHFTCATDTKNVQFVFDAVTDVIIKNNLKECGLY
Protocol: Purified GST-Gαi3 or GST alone (5 μg) were immobilized on glutathione-Sepharose beads and incubated with binding buffer [50 mM Tris-HCl (pH 7.4), 100 mM NaCl, 0.4% (vol:vol) Nonidet P-40, 10 mM MgCl2, 5 mM EDTA, 30 μM GDP, 2 mM DTT, protease inhibitor mixture] for 90 min at room temperature as described (49, 50, 52, 54). TAT-GIV-CT (amino acids 1,660-1,870) proteins (3 μg) were added to each tube, and binding reactions were carried out for 4 h at 4° C. with constant tumbling. Beads were washed (four times) with 1 mL of wash buffer [4.3 mM Na2HPO4, 1.4 mM KH2PO4 (pH 7.4), 137 mM NaCl, 2.7 mM KCl, 0.1% (vol:vol) Tween 20, 10 mM MgCl2, 5 mM EDTA, 30 μM GDP, 2 mM DTT] and reduced in Laemmli's sample buffer at 37° C. Immunoblot analysis was performed by infrared imaging following the manufacturer's protocols using an Odyssey imaging system (Li-Cor Biosciences).

[1] = system: EGFR autophosphorylation and Akt signaling; experiment: EGF signaling in TAT-transduced HeLa cells by immunoblotting; type: cell-based; conditions: 50 nM EGF; for EGFR autophosphorylation: pY1068
Protocol: For immunoblotting, protein samples were separated by SDS/PAGE and transferred to PVDF membranes (Millipore). Membranes were blocked with PBS supplemented with 5% nonfat milk (or with 5% BSA when probing for phosphorylated proteins) before incubation with primary antibodies. Infrared imaging with two-color detection and quantification were performed using a Li-Cor Odyssey imaging system (50, 52, 53). Primary antibodies were diluted as follows: anti-His 1:1,000; anti-GIV/Girdin (T-13) 1:500; antiphospho EGFR 1068 (1:1000); anti-phospho-Akt (Ser473) 1:250; anti-Akt 1:500; anti-Gαi3 1:333; anti-pan-GP 1:250; anti-α tubulin 1: 2,000. All Odyssey images were processed using Image J software (NIH) and assembled for presentation using Photoshop and Illustrator software (Adobe).
For TAT-protein transduction, cells were incubated with 400-800 nM of the TAT-proteins for 30 min at 37° C. prior to three washes with PBS and addition of fresh growth media. For analysis of EGF signaling, subconfluent monolayers of HeLa cells were treated with TAT proteins for 30 min, washed with PBS, and subsequently stimulated with EGF (50 nM) at 4 h after TAT transduction. For scratch-wound assays, HeLa monolayers were treated with TAT proteins before and at 12 h after wounding. For cancer cell invasion assays, highly invasive MDA MB 231 breast cancer cells were plated in 6-well dishes, treated with TAT-peptides for 30 min and subsequently lifted and placed in transwell chamber in the presence of serum-free media. For L×2 myofibroblast activation assays, cells were first treated with TAT-proteins for 30 min, starved in serum-free media, and subsequently treated with 1.5 ng/ml TGF-β for 24 h. TAT-protein transduction was repeated every 8 h during the course of TGFβ stimulation (total 3 treatments). For assays involving insulin stimulation of TAT-treated L6 myotubes, such stimulation was carried out 90 min after transduction. In each case, whole cell lysates prepared from cells in duplicate wells were analyzed for signaling pathways and TAT-protein uptake by immunoblotting.

MDA MB231 cells = experiment: Transwell tumor cell invasion assay through basement membrane extract; type: cell-based; conditions: compared to TAT-control peptides; 50 nM EGF
Protocol: Briefly, after a serum starvation overnight, MDA MB231 cells were first transduced with TAT peptides for 30 min as above. Transduced cells were trypsinized, counted, and placed in a Corning transwell permeable support coated with Cultrex Basement Membrane Extract (7×10^4 cells per well). Media without FBS but containing EGF ligand (50 nM) was placed within the bottom chamber of each well to trigger directional 3D invasion. As done in the 2D migration assays, transduction with TAT peptides was repeated one more time ˜10-12 h into the assay (total of two times). At 22-24 h, a Q-tip was used to meticulously remove all cells from the surface of the permeable membrane facing the upper chamber. […] To quantify cell invasion (expressed as number of invasive cells/high power field) ˜10-12 random fields per membrane insert per condition were analyzed for number of crystal violet stained cells. […]
Invasion assays were performed using Corning® Transwell plates according to the manufacturer's protocol. Transduced cells were trypsinized, counted and placed in a Corning transwell permeable support coated with Cultrex® Basement Membrane Extract (7×10^4 cells/well). […] Cell invasion (expressed as number of invasive cells/high power field) was quantified by analyzing ˜10-12 random fields/membrane insert/condition for number of crystal violet stained cells.

[2] = system: 6-mm punch biopsy dermal wounds; experiment: Dermal wound healing in mice, topical TAT proteins; type: in vivo; conditions: for wound healing: topical 15 μg (~500 pmol) every 24 h for 8 d, vs TAT control
Protocol: Under general anesthesia, two 6-mm diameter punch biopsy wounds were created on the shaved dorsal surface of 8 wk old female C56BL/6 wild-type mice under sterile conditions. Wounds were then treated with 15 μg (˜500 pmol) of TAT proteins every 24 h for 8 d after injury, and photographed every 48 h over that period, and wound area was manually traced by placing a transparent film over the wound and tracing the outline with a permanent marker. To measure the wound area, the edges of the dermis were determined as the wound edge. […] The tracing was then scanned and measured using an image analysis program (NIH Image J Software). Five mice, each with 2 wounds (a total of 10 wounds) were studied in each treatment arm, and their rate of closure was analyzed. These studies were carried out in a blinded manner such that aliquots of purified TAT proteins were prepared and color coded before their arrival at the animal facility. Consequently, the personnel who performed dermal punch biopsies, daily treatment with TAT proteins, photography and measurement of wound area was blinded to the identity of the compound. The study protocol (FIG. 4B) included standard wound care as per IACUC guidelines.

HeLa cells = experiment: Scratch-wound 2D cell migration assay; type: cell-based; conditions: lysates 6 h post-wounding

Molecule | Binding to GDP-loaded GST-Gαi3 in pulldown (GST-Gαi3 (GDP loaded)) | Binding to GDP-loaded GST-Gαi3 in pulldown (GST-Gαi3 (GDP loaded); listed as WT) | Akt signaling (phosphorylation at Ser 473) [1] | EGFR autophosphorylation [1] | invasion through basement membrane matrix in response to EGF gradient (MDA MB231 cells) | rate of wound healing relative to TAT-treated controls ([2]; topical 500 pmol daily) [× the rate] | time of wound healing relative to TAT-treated controls ([2]; topical 500 pmol daily) | wound healing [2] | Akt activation during 2D cell migration (HeLa cells) | EGFR autophosphorylation during 2D cell migration (HeLa cells) | Akt activation during 2D cell migration (HeLa cells; listed as WT) | EGFR autophosphorylation during 2D cell migration (HeLa cells; listed as WT) | Binding to GDP-loaded GST-Gαi3 in pulldown (GST-Gαi3 (GDP loaded); listed as FA) | wound healing ([2]; listed as FA)
TAT-GIV-CT-WT: Recombinant cell-permeable fusion of TAT-PTD, His and HA tags, linker and human GIV C-terminus (aa 1660-1870), wild type; SEQ ID NO: 2 (protein) MRGSHHHHHHGMASMTGGQQMGRDLYDDDDKDRWGSKLGYGRKKRRQRRRGGSTMSGYPYDVPDYAGSMGGSGHSGETLESRHHKIKTGSPGSEVVTLQQFLEESNKLTSVQIKSSSQENLLDEVMKSLSVSSDFLGKDKPVSCGLARSVSGKTPGDFYDRRTTKPEFLRPGPRKTEDTYFISSAGKPTPGTQGKIKLVKESSLSRQSKDSNPYATLPRASSVISTAEGTTRRTSIHDFLTKDSRLPISVDSPPAAADSNTTAASNVDKVQESRNSKSRSREQQSS | bound | binds | enhances | enhances | significantly enhanced | ~2 | a day earlier | accelerated wound healing; also recorded: accelerates | enhances | enhances | enhanced | enhanced | – | –
TAT-GIV-CT-FA: GEF-deficient F1685A mutant of the TAT-GIV-CT peptide, dominant-negative; SEQ ID NO: 3 (protein) MRGSHHHHHHGMASMTGGQQMGRDLYDDDDKDRWGSKLGYGRKKRRQRRRGGSTMSGYPYDVPDYAGSMGGSGHSGETLESRHHKIKTGSPGSEVVTLQQALEESNKLTSVQIKSSSQENLLDEVMKSLSVSSDFLGKDKPVSCGLARSVSGKTPGDFYDRRTTKPEFLRPGPRKTEDTYFISSAGKPTPGTQGKIKLVKESSLSRQSKDSNPYATLPRASSVISTAEGTTRRTSIHDFLTKDSRLPISVDSPPAAADSNTTAASNVDKVQESRNSKSRSREQQSS | did not bind | – | inhibited; also recorded: suppresses | inhibited; also recorded: suppresses | virtually abolished | – | – | – | not | not | – | – | not | delayed wound healing; also recorded: retards
